Assay results from PMC4169731 (Peptides, 2014).
Several values for one entry are separate records, joined by “and”; a condition that tells them apart may be missing. Identical values can stand only once. Where a SMILES comes first, the peptide text is derived from it. The star is where a group is joined. 124I = [124I]*; 125I = [125I]*

Key:
Assay type in all cases: in vivo, mouse
AA amyloid deposits [1] = assay: Longitudinal SPECT/CT imaging of ^125I-p5 in AA mice
[2] = Dynamic PET/CT imaging of ^124I-p5 in mice; conditions: ^124I-p5 IV, dynamic PET
[3] = Dynamic PET/CT imaging of ^124I-p5, time activity curves, healthy; conditions: WT mice, ^124I-p5 IV
[4] = system: amyloid-laden (AA) H2-L^d-HuIL-6 Tg BALB/c mice; assay: Dynamic PET/CT imaging of ^124I-p5, time activity curves, amyloid-laden
AA amyloid deposits [5] = assay: Tissue biodistribution of ^124I radioactivity; conditions: 120 min pi of ^124I-p5; n = 3; more in AA mice
AA amyloid deposits [6] = conditions: ^125I-p5; 72 h pi; AA mice; microautoradiography
[7] = dynamic PET 2 h, double exponential fit
[8] = dynamic PET 2 h, single exponential fit
[9] = AA mice, ^124I-p5 IV, dynamic PET 2 h, double exponential fit
[10] = AA mice, ^124I-p5 IV, dynamic PET 2 h, single exponential fit
[11] = higher in AA mice, biexponential decay, dynamic PET

C[C@H](NC(=O)[C@H](CCC(N)=O)NC(=O)[C@H](C)NC(=O)[C@H](CCCCN)NC(=O)[C@H](CCC(N)=O)NC(=O)[C@H](C)NC(=O)[C@H](CCCCN)NC(=O)[C@H](CCC(N)=O)NC(=O)[C@H](C)NC(=O)[C@H](CCC(N)=O)NC(=O)[C@H](CCCCN)NC(=O)[C@H](C)NC(=O)[C@H](CCC(N)=O)NC(=O)[C@H](CCCCN)NC(=O)[C@H](C)NC(=O)[C@H](CCC(N)=O)NC(=O)[C@H](C)NC(=O)[C@H](CCCCN)NC(=O)[C@H](CCC(N)=O)NC(=O)[C@H](C)NC(=O)[C@H](CCCCN)NC(=O)[C@H](CO)NC(=O)[C@H](Cc1ccc(O)cc1)NC(=O)CNC(=O)CNC(=O)CN)C(=O)N[C@@H](CCCCN)C(=O)N[C@@H](CCC(N)=O)C(=O)N[C@@H](C)C(=O)N[C@@H](CCCCN)C(=O)N[C@@H](CCC(N)=O)C(=O)O [p5] (H-GGGYSKAQKAQAKQAKQAQKAQKAQAKQAKQ-OH)
Time the peptide remains bound to amyloid in vivo (AA amyloid deposits [1]; mice): at least 3 days
Time the peptide remains stably bound to amyloid deposits and radioactive (AA amyloid deposits [1]; mice, pi): at least 72 h

^124I-p5: peptide p5 radiolabeled with ^124I on Tyr using Iodogen, for PET imaging (H-GGGY(124I)SKAQKAQAKQAKQAQKAQKAQAKQAKQ-OH)
Lag time (tlag) of thyroid radioactivity ([2]; WT and AA not distinguished): ~ 8 min
Radioactivity removed from the blood pool ([2]; by 5 min pi): ~ 90%
Lag time (tlag) before accumulation of radioactivity in stomach ([3]; dynamic PET): ~ 8 min
Time of peak activity in the kidneys (tmax) ([3]; dynamic PET): ~ 7 min
T1/2 fast, liver [3, 7]: 0.70 min
T1/2 slow, blood [3, 7]: 37.99 min
T1/2 slow, liver [3, 7]: 20.82 min
Kfast, kidney ([3]; dynamic PET 2 h, single exponential decay after peak): 0.06 min⁻¹ and 0.06 ± 0.001 min⁻¹
T1/2 fast, kidney [3, 8]: 10.96 min
T1/2 fast, spleen [3, 8]: 11.19 min
T1/2 fast, thyroid [3, 8]: 20.67 min
Lag time (tlag) before accumulation of radioactivity in stomach ([4]; AA mice, ^124I-p5 IV, dynamic PET): ~ 8 min
Kslow, liver ([4]; AA mice, ^124I-p5 IV, dynamic PET 2 h, double exponential association): 0.17 ± 0.01 min⁻¹
Kslow, blood (heart ROI) [4, 9]: 0.49 ± 0.04 min⁻¹
T1/2 fast, blood [4, 9]: 0.49 min
T1/2 fast, liver [4, 9]: 0.31 min
Kfast, spleen ([4]; AA mice, ^124I-p5 IV, dynamic PET 2 h, single exponential association): 0.04 ± 0.00 min⁻¹
Kfast, kidney [4, 10]: 0.04 min⁻¹ and 0.04 ± 0.003 min⁻¹
T1/2 fast, kidney [4, 10]: 16.62 min
T1/2 fast, spleen [4, 10]: 15.62 min
Blood pool Kfast (α component), AA mice relative to WT mice [4, 11]: > 2 fold
Blood pool Kslow (β), AA mice relative to WT mice [4, 11]: > 2 fold
Radioactivity (%ID/g) in liver, pancreas and spleen, AA mice compared to WT mice (AA amyloid deposits [5]): ~ 10 fold

^125I-p5: peptide p5 radioiodinated with ^125I using chloramine T, for SPECT imaging (H-GGGY(125I)SKAQKAQAKQAKQAQKAQKAQAKQAKQ-OH)
Reactivity with healthy tissues (AA amyloid deposits [6]): No significant reactivity
Loss of radioactivity from major amyloid organs (liver, spleen and pancreas) (AA amyloid deposits [1]; AA mice, ^125I-p5, 72 h pi, SPECT): essentially no loss of radioactivity
Time of retention in the liver and spleen (AA amyloid deposits [1]; AA mice, ~5 μg ^125I-p5 (~150 μCi) IV, SPECT/CT at 2, 24, 48, 72 h pi): more than 72 h
